Data as given in patent US20230277625A1 (SIMCHA IL 18, published 2023).

T1: Mouse IL-18Rα ectodomain (amino acids 19-329), biotinylated (mouse, UniProt Q61098 19-329, biotin on the AviTag (BirA ligase))
T1 construct: range 19-329; Secreted from Expi293 cells (H7 signal peptide removed); also called mIL-18Rα; mIL18Ra
T1 sequence: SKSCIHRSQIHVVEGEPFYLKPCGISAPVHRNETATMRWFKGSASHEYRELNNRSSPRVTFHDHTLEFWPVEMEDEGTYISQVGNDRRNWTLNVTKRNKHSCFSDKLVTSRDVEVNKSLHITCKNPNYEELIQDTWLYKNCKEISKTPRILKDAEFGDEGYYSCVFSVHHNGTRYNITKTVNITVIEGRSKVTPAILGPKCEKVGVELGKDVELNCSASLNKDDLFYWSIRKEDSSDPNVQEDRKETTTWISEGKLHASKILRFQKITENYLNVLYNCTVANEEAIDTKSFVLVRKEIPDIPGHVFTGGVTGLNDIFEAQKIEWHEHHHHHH

T2: Mouse IL-18BP (amino acids 31-194), biotinylated (mouse, UniProt Q9Z0M9 29-193, biotin on the AviTag (BirA ligase))
T2 construct: also called mIL-18BP
T2 sequence: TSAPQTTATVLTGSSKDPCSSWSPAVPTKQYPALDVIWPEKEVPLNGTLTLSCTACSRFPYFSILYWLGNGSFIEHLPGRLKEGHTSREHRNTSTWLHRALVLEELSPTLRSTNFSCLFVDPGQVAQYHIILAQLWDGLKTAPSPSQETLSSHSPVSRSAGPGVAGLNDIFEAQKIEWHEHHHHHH

T3: Human IL-18Rα ectodomain (amino acids 19-329), biotinylated (human, UniProt Q13478 19-329, biotin on the AviTag (BirA ligase))
T3 construct: range 19-329; Secreted from insect cells (gp67 signal peptide removed); also called hIL-18Rα; hIL18Rα
T3 sequence: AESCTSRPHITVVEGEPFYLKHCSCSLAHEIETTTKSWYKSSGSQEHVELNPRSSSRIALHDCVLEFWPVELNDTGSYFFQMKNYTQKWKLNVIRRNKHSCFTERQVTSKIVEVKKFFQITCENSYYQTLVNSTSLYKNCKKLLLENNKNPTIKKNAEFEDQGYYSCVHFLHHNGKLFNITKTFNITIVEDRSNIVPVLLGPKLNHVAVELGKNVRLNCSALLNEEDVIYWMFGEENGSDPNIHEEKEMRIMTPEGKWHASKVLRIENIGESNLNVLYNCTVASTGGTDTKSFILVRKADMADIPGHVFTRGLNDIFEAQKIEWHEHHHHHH

T4: Human IL-18BP (amino acids 31-194), biotinylated (human, UniProt O95998 31-194, biotin on the AviTag (BirA ligase) where used biotinylated)
T4 construct: Soluble decoy receptor; also called hIL-18BP; recombinant IL-18BP
T4 sequence: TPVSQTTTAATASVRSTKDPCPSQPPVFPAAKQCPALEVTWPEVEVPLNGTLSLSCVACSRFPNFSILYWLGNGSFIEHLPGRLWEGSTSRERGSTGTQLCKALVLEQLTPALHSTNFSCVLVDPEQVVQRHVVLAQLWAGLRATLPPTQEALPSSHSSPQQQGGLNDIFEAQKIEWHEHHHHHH

B1: SEQ ID NO: 70 (murine DR-IL-18 variant mA7) (ligand)
chain: YFGRLHCTTAVIRNINDQVLFVDKRQPVFEDMTDIDQSASEPQTRLIIYAYGDNRVRGKAVTLSVKDSKMSTLSCKNKIISFEEMDPPENIDDIQSDLIFFQKRVPGHNKMEFESSLYEGHFLACQKEDDAFKLILKKKDENGDKSVMFTLTNLHQS
notes: Engineered variant
B2: SEQ ID NO: 35 (human DR-IL-18 variant hCS2) (ligand)
chain: YFGKLESKLSVIRNLNDQVLFIDQGNRPLFEDMTDSDCRDNAPRTIFIISTYKDKQPRAKAVTISVKCEKISTLSCENKIISFKEMNPPDNIKDTKSDIIFFQRDVPGHKHKMQFESSSYEGYFLACEKERDLFKLILKKEDELGDRSIMFTIQNED
notes: Engineered variant

Key:
[1] = target: T1, Mouse IL-18Rα ectodomain (amino acids …); assay: on-yeast binding isotherm (flow cytometry)
Description: (§1) Individual colonies of IL-18 yeast were grown overnight at 30° C. in SDCAA liquid media and induced in SGCAA liquid media for 1 day at 20° C. IL-18 display levels on yeast were verified by flow cytometry using an anti-cMyc tag antibody (anti-myc-PE; Cell Signaling Technologies). Receptor staining with biotinylated IL-18Rα (with or without IL-18R β) or biotinylated IL-18BP was performed in PBS supplemented with 0.5% BSA and 2 mM EDTA (PBE) on ice. All analysis was performed on a Sony SA3800 flow cytometer.

[2] = target: T2, Mouse IL-18BP (amino acids 31-194), …; assay: yeast binding isotherms and SPR; members per FIG. 11A legend
Description: as §1
(§2) Experiments were conducted using a Biacore T100 and carried out at 25° C. Biotinylated IL-18Rα or IL-18BP were immobilized onto a Biacore biotin capture chip (Series S CAP sensor chip, GE Healthcare) to yield an Rmax of ˜50 RU (IL-18Rα) or ˜10 RU (IL-18BP). Measurements were made with serial dilutions of the IL-18 variants in HEPES buffered Saline-P+buffer (10 mM HEPES pH 7.4, 150 mM NaCl, 0.005% surfactant P20). The surface was regenerated by three 60-sec injections of regeneration buffer (3/4 (v/v) 8M guanidine hydrochloride with 1/4 (v/v) 1M sodium hydroxide). Experiments were performed in multiple channels simultaneously for increased observations. All data were analyzed with the Biacore T100 evaluation software version 2.0 with a 1:1 Langmuir binding model.

[3] = target: T2, Mouse IL-18BP (amino acids 31-194), …; assay: SPR; KD ratio relative to WT IL-18; SPR; ratio normalized to WT
Description: as §2

[4] = target: T1, Mouse IL-18Rα ectodomain (amino acids …); assay: SPR (Biacore T100), receptor captured via biotin, IL-18 as analyte
Description: as §2

[5] = target: T2, Mouse IL-18BP (amino acids 31-194), …; assay: SPR; KD for IL-18BP over KD for IL-18Rα; SPR; ratio of two measured KD
Description: as §2

[6] = target: T2, Mouse IL-18BP (amino acids 31-194), …; assay: SPR; range of a group, this end tied to A7 by the 9th table; m is a multiple of 1,000,000
[7] = target: T2, Mouse IL-18BP (amino acids 31-194), …; assay: SPR (Biacore T100), IL-18BP captured via biotin, IL-18 as analyte; SPR, soluble variant
Description: as §2

[8] = target: T2, Mouse IL-18BP (amino acids 31-194), …; assay: on-yeast binding isotherms; 10 µM used for NBD; yeast-displayed variant; ratio computed with 10 µM put in for NBD
Description: as §1

[9] = target: T2, Mouse IL-18BP (amino acids 31-194), …; assay: on-yeast binding isotherms; KD ratio relative to WT IL-18; yeast-displayed variant; ratio normalized to WT, from the 10 µM placeholder
Description: as §1

[10] = target: T3, Human IL-18Rα ectodomain (amino acids …); assay: SPR (Biacore T100), receptor captured via biotin, IL-18 as analyte
Description: as §2
To additionally characterize the receptor binding activities of the DR-IL-18 variants, the cytokines were expressed recombinantly and surface plasmon resonance for IL-18Rα and IL-18BP was performed (see FIG. 5B for representative traces).

[11] = target: T3, Human IL-18Rα ectodomain (amino acids …); assay: on-yeast binding isotherm (flow cytometry), drawn summary table, IL18Rα (KD)
In short: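 Yeast displaying IL-18 variants were grown at 30 °C, then induced 1 day at 20 °C, with display checked by anti-myc-PE. Cells were stained on ice with biotinylated IL-18Rα (± IL-18Rβ) or biotinylated IL-18BP in PBS/0.5% BSA/2 mM EDTA. Binding was read by flow cytometry.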

[12] = target: T4, Human IL-18BP (amino acids 31-194), …; assay: on-yeast binding isotherms; 20 µM used for NBD; yeast-displayed variant, flow cytometry; ratio computed with 20 µM put in for NBD
[13] = target: T4, Human IL-18BP (amino acids 31-194), …; assay: on-yeast binding isotherms; KD ratio relative to WT IL-18; yeast-displayed variant; ratio normalized to WT, from the 20 µM placeholder

Binder	Kd [1] [nM]	Kd [2] [nM]	Dissociation Constant Ratio normalized to WT IL-18 [3]	Kd [4] [nM]	KD ratio IL-18BP/IL-18Rα [5]	IL-18 BP:Rα Dissociation Constant Ratio [6]	Kd [7] [nM]	KD ratio IL-18BP/IL-18Rα [8]	Dissociation Constant Ratio normalized to WT IL-18 [9]	Kd [10] [nM]	Kd [11] [nM]	KD ratio IL-18BP/IL-18Rα [12]	Dissociation Constant Ratio normalized to WT IL-18 [13]
B1	13.5	> 1000	3.45e+07	0.22	63200	3.5e+07	13900	> 741	> 3930	–	–	–	–
B2	–	–	–	–	–	–	–	–	–	13.1	92	> 219	> 741
